Earlier results as cited in publication PMC4414177, “A novel orally active water-soluble inhibitor of human glutathione transferase exerts a potent and selective antitumor activity against human melanoma xenografts” (Oncotarget, 2015).

Target: GSTP1-1 (Homo sapiens) (UniProt P09211)
Test: ELISA

GSTP1-1 (Homo sapiens), sequence (P09211 2-210): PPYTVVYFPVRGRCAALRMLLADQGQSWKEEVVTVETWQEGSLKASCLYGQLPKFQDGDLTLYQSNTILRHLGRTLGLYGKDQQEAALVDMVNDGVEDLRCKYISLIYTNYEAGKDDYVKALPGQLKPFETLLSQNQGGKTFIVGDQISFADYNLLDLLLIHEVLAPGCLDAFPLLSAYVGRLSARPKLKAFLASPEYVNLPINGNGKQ
TRAF2 CTD, sequence (Q12933 310-501): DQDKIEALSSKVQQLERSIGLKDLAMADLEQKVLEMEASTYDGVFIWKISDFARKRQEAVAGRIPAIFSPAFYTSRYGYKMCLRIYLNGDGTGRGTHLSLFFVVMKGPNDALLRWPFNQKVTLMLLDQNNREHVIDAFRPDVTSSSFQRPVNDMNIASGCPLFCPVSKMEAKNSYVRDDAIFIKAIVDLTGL
JNK1α2, sequence (P45983 whole entry): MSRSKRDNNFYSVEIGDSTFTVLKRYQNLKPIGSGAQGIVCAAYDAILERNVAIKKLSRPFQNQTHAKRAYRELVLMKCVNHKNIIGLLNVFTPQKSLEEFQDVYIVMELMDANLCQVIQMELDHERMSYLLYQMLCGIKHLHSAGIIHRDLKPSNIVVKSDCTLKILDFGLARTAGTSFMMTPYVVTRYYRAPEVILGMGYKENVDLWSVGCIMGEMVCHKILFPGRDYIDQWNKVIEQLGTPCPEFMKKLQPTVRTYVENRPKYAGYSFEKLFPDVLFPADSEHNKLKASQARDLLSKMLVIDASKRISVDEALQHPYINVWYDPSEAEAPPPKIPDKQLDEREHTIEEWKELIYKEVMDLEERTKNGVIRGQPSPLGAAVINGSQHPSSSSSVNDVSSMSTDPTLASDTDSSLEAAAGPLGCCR

Kd | Substance
> 5 µM | TRAF2 CTD (from UniProt Q12933)
> 10 µM | JNK1α2 (from UniProt P45983)
